The supplement of paper PMC9112550, “Optimization of the antimicrobial peptide Bac7 by deep mutational scanning” (BMC Biology, 2022)

System: Escherichia coli TOP10
Experiment: shrunken log2 fold change of peptide-encoding DNA abundance (4.5 h post-induction vs induction); higher = less antimicrobial activity (less host growth inhibition)
Details: time post-induction: 4.5 h; library: site-saturation at positions 5, 18, 19, 20
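Further: peptides expressed intracellularly from a pBAD plasmid library in pooled LB shake-flask culture, induced with 0.3% L-arabinose, DNA abundance read by NGS, three biological replicates, DESeq2 with apeglm shrinkage.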

Sequence	shrunken log2 fold change
RRIRTRPPRLPRPRPRPRYRPRP	-0.0728
RRIRTRPPRLPRPRPRPSAQPRP	0.0735
RRIRTRPPRLPRPRPRPSAYPRP	-0.144
RRIRTRPPRLPRPRPRPSCFPRP	-0.0671
RRIRTRPPRLPRPRPRPSDAPRP	-0.174
RRIRTRPPRLPRPRPRPSDRPRP	-0.138
RRIRTRPPRLPRPRPRPSDVPRP	-0.83
RRIRTRPPRLPRPRPRPSEVPRP	0.0146
RRIRTRPPRLPRPRPRPSFCPRP	-0.296
RRIRTRPPRLPRPRPRPSFLPRP	-0.586
RRIRTRPPRLPRPRPRPSFYPRP	-0.343
RRIRTRPPRLPRPRPRPSGMPRP	-0.34
RRIRTRPPRLPRPRPRPSHAPRP	-0.345
RRIRTRPPRLPRPRPRPSHMPRP	-0.7
RRIRTRPPRLPRPRPRPSHWPRP	-0.148
RRIRTRPPRLPRPRPRPSKGPRP	-0.605
RRIRTRPPRLPRPRPRPSKLPRP	-0.473
RRIRTRPPRLPRPRPRPSKQPRP	-0.11
RRIRTRPPRLPRPRPRPSKVPRP	-0.0295
RRIRTRPPRLPRPRPRPSLEPRP	-0.0452
RRIRTRPPRLPRPRPRPSMDPRP	2.57e-05
RRIRTRPPRLPRPRPRPSPEPRP	0.0171
RRIRTRPPRLPRPRPRPSPFPRP	0.133
RRIRTRPPRLPRPRPRPSQMPRP	-0.607
RRIRTRPPRLPRPRPRPSRYPRP	-0.23

Sequence	shrunken log2 fold change
RRIRTRPPRLPRPRPRPSSDPRP	1.82
RRIRTRPPRLPRPRPRPSSPPRP	-0.312
RRIRTRPPRLPRPRPRPSTAPRP	0.181
RRIRTRPPRLPRPRPRPSTNPRP	-0.488
RRIRTRPPRLPRPRPRPSTPPRP	-0.195
RRIRTRPPRLPRPRPRPSVDPRP	-0.108
RRIRTRPPRLPRPRPRPSVFPRP	-0.337
RRIRTRPPRLPRPRPRPSWAPRP	0.195
RRIRTRPPRLPRPRPRPSWEPRP	0.0239
RRIRTRPPRLPRPRPRPSYQPRP	-0.18
RRIRTRPPRLPRPRPRPTACPRP	0.277
RRIRTRPPRLPRPRPRPTCNPRP	-0.533
RRIRTRPPRLPRPRPRPTDAPRP	0.471
RRIRTRPPRLPRPRPRPTDMPRP	-0.0264
RRIRTRPPRLPRPRPRPTEEPRP	0.12
RRIRTRPPRLPRPRPRPTEYPRP	-0.245
RRIRTRPPRLPRPRPRPTGEPRP	0.178
RRIRTRPPRLPRPRPRPTGNPRP	-0.445
RRIRTRPPRLPRPRPRPTHGPRP	0.0213
RRIRTRPPRLPRPRPRPTIGPRP	-0.000966
RRIRTRPPRLPRPRPRPTIRPRP	-0.0471
RRIRTRPPRLPRPRPRPTKGPRP	-0.183
RRIRTRPPRLPRPRPRPTKIPRP	-0.169
RRIRTRPPRLPRPRPRPTKTPRP	0.0558
RRIRTRPPRLPRPRPRPTLAPRP	0.54

Sequence	shrunken log2 fold change
RRIRTRPPRLPRPRPRPTLCPRP	0.148
RRIRTRPPRLPRPRPRPTMWPRP	-0.0407
RRIRTRPPRLPRPRPRPTNSPRP	-0.334
RRIRTRPPRLPRPRPRPTQHPRP	0.22
RRIRTRPPRLPRPRPRPTQLPRP	-0.319
RRIRTRPPRLPRPRPRPTQQPRP	0.175
RRIRTRPPRLPRPRPRPTRAPRP	0.687
RRIRTRPPRLPRPRPRPTRKPRP	0.443
RRIRTRPPRLPRPRPRPTSMPRP	0.308
RRIRTRPPRLPRPRPRPTTYPRP	-0.441
RRIRTRPPRLPRPRPRPTVTPRP	0.0797
RRIRTRPPRLPRPRPRPTWGPRP	0.31
RRIRTRPPRLPRPRPRPTWLPRP	0.511
RRIRTRPPRLPRPRPRPTYLPRP	-0.827
RRIRTRPPRLPRPRPRPVADPRP	0.0403
RRIRTRPPRLPRPRPRPVATPRP	0.299
RRIRTRPPRLPRPRPRPVAYPRP	-0.502
RRIRTRPPRLPRPRPRPVCEPRP	0.243
RRIRTRPPRLPRPRPRPVCTPRP	0.162
RRIRTRPPRLPRPRPRPVDMPRP	-0.238
RRIRTRPPRLPRPRPRPVECPRP	0.0216
RRIRTRPPRLPRPRPRPVEEPRP	-0.08
RRIRTRPPRLPRPRPRPVEGPRP	-0.194
RRIRTRPPRLPRPRPRPVHTPRP	0.243
RRIRTRPPRLPRPRPRPVIVPRP	-0.314

Sequence	shrunken log2 fold change
RRIRTRPPRLPRPRPRPVKIPRP	-1.21
RRIRTRPPRLPRPRPRPVKMPRP	-0.0502
RRIRTRPPRLPRPRPRPVKYPRP	0.0856
RRIRTRPPRLPRPRPRPVLGPRP	0.304
RRIRTRPPRLPRPRPRPVLQPRP	4.38
RRIRTRPPRLPRPRPRPVMKPRP	0.00771
RRIRTRPPRLPRPRPRPVMNPRP	-0.143
RRIRTRPPRLPRPRPRPVMSPRP	-0.123
RRIRTRPPRLPRPRPRPVNEPRP	-0.103
RRIRTRPPRLPRPRPRPVNNPRP	-0.0819
RRIRTRPPRLPRPRPRPVNVPRP	-0.172
RRIRTRPPRLPRPRPRPVPKPRP	0.0251
RRIRTRPPRLPRPRPRPVPNPRP	0.123
RRIRTRPPRLPRPRPRPVPQPRP	0.00694
RRIRTRPPRLPRPRPRPVPSPRP	0.0454
RRIRTRPPRLPRPRPRPVPWPRP	0.95
RRIRTRPPRLPRPRPRPVQDPRP	-0.00469
RRIRTRPPRLPRPRPRPVQSPRP	-0.00991
RRIRTRPPRLPRPRPRPVRFPRP	0.0687
RRIRTRPPRLPRPRPRPVRMPRP	0.148
RRIRTRPPRLPRPRPRPVSPPRP	-0.194
RRIRTRPPRLPRPRPRPVTCPRP	-0.0382
RRIRTRPPRLPRPRPRPVYRPRP	-0.361
RRIRTRPPRLPRPRPRPVYYPRP	-1.24
RRIRTRPPRLPRPRPRPWAEPRP	-0.0837

Sequence	shrunken log2 fold change
RRIRTRPPRLPRPRPRPWALPRP	-0.23
RRIRTRPPRLPRPRPRPWCKPRP	-0.202
RRIRTRPPRLPRPRPRPWCSPRP	-0.799
RRIRTRPPRLPRPRPRPWEAPRP	0.337
RRIRTRPPRLPRPRPRPWEPPRP	-0.0542
RRIRTRPPRLPRPRPRPWGRPRP	0.00879
RRIRTRPPRLPRPRPRPWHDPRP	-0.0708
RRIRTRPPRLPRPRPRPWIRPRP	-0.0303
RRIRTRPPRLPRPRPRPWIVPRP	-0.0452
RRIRTRPPRLPRPRPRPWLDPRP	-0.181
RRIRTRPPRLPRPRPRPWLIPRP	0.00287
RRIRTRPPRLPRPRPRPWMFPRP	-0.355
RRIRTRPPRLPRPRPRPWPPPRP	0.154
RRIRTRPPRLPRPRPRPWPTPRP	0.371
RRIRTRPPRLPRPRPRPWQDPRP	-0.326
RRIRTRPPRLPRPRPRPWQSPRP	0.0475
RRIRTRPPRLPRPRPRPWRQPRP	0.0481
RRIRTRPPRLPRPRPRPWRRPRP	0.496
RRIRTRPPRLPRPRPRPWRYPRP	0.108
RRIRTRPPRLPRPRPRPWTAPRP	-0.124
RRIRTRPPRLPRPRPRPWTLPRP	-0.0728
RRIRTRPPRLPRPRPRPWTVPRP	-0.0107
RRIRTRPPRLPRPRPRPYDFPRP	-0.385
RRIRTRPPRLPRPRPRPYFAPRP	-0.193
RRIRTRPPRLPRPRPRPYFNPRP	-1.03

Sequence	shrunken log2 fold change
RRIRTRPPRLPRPRPRPYHMPRP	-0.293
RRIRTRPPRLPRPRPRPYHQPRP	-0.182
RRIRTRPPRLPRPRPRPYHRPRP	0.0446
RRIRTRPPRLPRPRPRPYKSPRP	-0.118
RRIRTRPPRLPRPRPRPYMCPRP	-0.827
RRIRTRPPRLPRPRPRPYPFPRP	-0.0603
RRIRTRPPRLPRPRPRPYQRPRP	-0.0311
RRIRTRPPRLPRPRPRPYRIPRP	-0.0176
RRIRTRPPRLPRPRPRPYRVPRP	0.0325
RRIRTRPPRLPRPRPRPYTNPRP	-0.0771
RRIRTRPPRLPRPRPRPYTSPRP	-0.00661
RRIRTRPPRLPRPRPRPYYAPRP	-0.489
RRIRTRPPRLPRPRPRPYYNPRP	-0.719
RRIRVRPPRLPRPRPRPAALPRP	0.0637
RRIRVRPPRLPRPRPRPACVPRP	-0.0412
RRIRVRPPRLPRPRPRPAFGPRP	0.18
RRIRVRPPRLPRPRPRPAGNPRP	0.141
RRIRVRPPRLPRPRPRPAHVPRP	0.0119
RRIRVRPPRLPRPRPRPAKIPRP	0.117
RRIRVRPPRLPRPRPRPAKMPRP	0.0161
RRIRVRPPRLPRPRPRPAKRPRP	0.615
RRIRVRPPRLPRPRPRPALEPRP	0.495
RRIRVRPPRLPRPRPRPALGPRP	0.423
RRIRVRPPRLPRPRPRPAMAPRP	0.418
RRIRVRPPRLPRPRPRPAMSPRP	-0.096
